Measured values as given in article PMC4830213, “Signaling mechanism by the Staphylococcus aureus two-component system LytSR: role of acetyl phosphate in bypassing the cell membrane electrical potential sensor LytS” (F1000Research, 2016).

Molecular target: phosphorylated receiver domain of LytR (LytR^N-P) (Staphylococcus aureus strain Mu50) (UniProt P60609)
Experiment: native gel or EMSA; LytR^N and LytR^N-P (phosphorylated by acetyl phosphate) at 10, 20 and 40 µM on native-PAGE (10% in the methods, 15% in the legend), buffer kept at 4°C, Coomassie stain

Substance: phosphorylated receiver domain of LytR (LytR^N-P) (from UniProt P60609 1-134) (domain or fragment)
- stoichiometry N: 2
